Measured values published in patent US20250154276A1 (ZONHON BIOPHARMA INSTITUTE, published 2025).
Substitutions are numbered along the chain they refer to.

B1: 19G294 (bispecific antibody)
chain: DIVMTQSPSSLSVTPGERVSISCRSDKSLLHSNGNTYLYWFLQKPGQSPQVLIYRMSNLASGVPDRFSGSGSGTDFTLTISRVEAEDVGVYYCFQQLEYPYTFGQGTKLEIKGGGGSGGGGSGGGGSEVQLVQSGAELVKPGASVKLSCAASGFNIKDTYIYWVRQAPGQGLEWVGRIEPMNGNTKYDPKFQGRFTMTANTSKNTAYLQLSSLRSEDTAVYYCSRGGWLLLYVMDYWGQGTLVTVSSGGGGSDVQLVQSGAEVKKPGASVKVSCKASGYTFTRYTMHWVRQAPGQGLEWIGYINPSRGYTNYADSVKGRFTITTDKSTSTAYMELSSLRSEDTATYYCARYYDDHYCLDYWGQGTTVTVSSGGGGSGGGGSGGGGSDIVLTQSPATLSLSPGERATLSCRASQSVSYMNWYQQKPGKAPKRWIYDTSKVASGVPARFSGSGSGTDYSLTINSLEAEDAATYYCQQWSSNPLTFGGGTKVEIK
B2: 18G272 (bispecific antibody)
chain: DIVMTQSASSLPVTPGEPASISCRSDKSLLHSNGNTYLYWFLQKPGQSPQVLIYRMSNLASGVPDRFSGSGSGTDFTLTISRVEAEDVGVYYCFQQLEYPYTFGQGTKLEIKGGGGSGGGGSGGGGSQVQLVQSGAEVVKPGASVKISCKASGFNIKDTYIYWVRQRTGQGLEWIGRIEPMNGNTKYDPKFQGRLTMTANTSKNTAYLQLSSLTSEDTAVYYCSRGGWLLLYVMDYWGQGTTVTVSSGGGGSDVQLVQSGAEVKKPGASVKVSCKASGYTFTRYTMHWVRQAPGQGLEWIGYINPSRGYTNYADSVKGRFTITTDKSTSTAYMELSSLRSEDTATYYCARYYDDHYCLDYWGQGTTVTVSSGGGGSGGGGSGGGGSDIVLTQSPATLSLSPGERATLSCRASQSVSYMNWYQQKPGKAPKRWIYDTSKVASGVPARFSGSGSGTDYSLTINSLEAEDAATYYCQQWSSNPLTFGGGTKVEIK
B3: ZA23 (bispecific antibody, human IgG1, kappa)
heavy 1: QVQLVQSGAEVVKPGASVKISCKASGFNIKDTYIYWVRQRTGQGLEWIGRIEPMNGNTKYDPKFQGRLTMTANTSKNTAYLQLSSLTSEDTAVYYCSRGGWLLLYVMDYWGQGTTVTVSSASTKGPSVFPLAPSSKSTSGGTAALGCLVKDYFPEPVTVSWNSGALTSGVHTFPAVLQSSGLYSLSSVVTVPSSSLGTQTYICNVNHKPSNTKVDKKVEPKSCDKTHTCPPCPAPEFLGGPSVFLFPPKPKDTLMISRTPEVTCVVVDVSQEDPEVQFNWYVDGVEVHNAKTKPREEQFNSTYRVVSVLTVLHQDWLNGKEYKCKVSNKGLPSSIEKTISKAKGQPREPQVYTLPPCQEEMTKNQVSLWCLVKGFYPSDIAVEWESNGQPENNYKTTPPVLDSDGSFFLYSRLTVDKSRWQEGNVFSCSVMHEALHNHYTQKSLSLSLGK
light 1: DIVMTQSASSLPVTPGEPASISCRSDKSLLHSNGNTYLYWFLQKPGQSPQVLIYRMSNLASGVPDRFSGSGSGTDFTLTISRVEAEDVGVYYCFQQLEYPYTFGQGTKLEIKRTVAAPSVFIFPPSDEQLKSGTASVVCLLNNFYPREAKVQWKVDNALQSGNSQESVTEQDSKDSTYSLSSTLTLSKADYEKHKVYACEVTHQGLSSPVTKSFNRGEC
heavy 2: DVQLVQSGAEVKKPGASVKVSCKASGYTFTRYTMHWVRQAPGQGLEWIGYINPSRGYTNYADSVKGRFTITTDKSTSTAYMELSSLRSEDTATYYCARYYDDHYCLDYWGQGTTVTVSSASTKGPSVFPCAPSSKSTSGGTAALGCLVKDYFPEPVTVSWNSGALTSGVHTFPAVLQSSGLYSLSSVVTVPSSSLGTQTYICNVNHKPSNTKVDKKVEPKSSDKTHTCPPCPAPEFLGGPSVFLFPPKPKDTLMISRTPEVTCVVVDVSQEDPEVQFNWYVDGVEVHNAKTKPREEQFNSTYRVVSVLTVLHQDWLNGKEYKCKVSNKGLPSSIEKTISKAKGQPREPQVCTLPPSQEEMTKNQVSLSCAVKGFYPSDIAVEWESNGQPENNYKTTPPVLDSDGSFFLVSRLTVDKSRWQEGNVFSCSVMHEALHNHYTQKSLSLSLGK
light 2: DIVLTQSPATLSLSPGERATLSCRASQSVSYMNWYQQKPGKAPKRWIYDTSKVASGVPARFSGSGSGTDYSLTINSLEAEDAATYYCQQWSSNPLTFGGGTKVEIKRTVAAPSVFICPPSDEQLKSGTASVVCLLNNFYPREAKVQWKVDNALQSGNSQESVTEQDSKDSTYSLSSTLTLSKADYEKHKVYACEVTHQGLSSPVTKSFNRGES
B4: ZA16 (bispecific antibody, human IgG1, kappa)
heavy 1: not shown
light 1: B3 light 1 with A8P, P12S, P18R, A19V
heavy 2: not shown
light 2: B3 light 2

Columns and labels:
human CD26 [1] = biological target: T1, human CD26 (human, UniProt P27487 1-766); assay: cell-based or functional assay
human CD26 [2] = biological target: T1, human CD26; assay: cell-based or functional assay; remark: listed apart in the source

Binder | IC50 values (pM) of different bispecific antibodies mediating PBMC cytotoxicity to different target cells (786-0) (human CD26 [1]) [pM] | IC50 values (pM) of different bispecific antibodies mediating PBMC cytotoxicity to different target cells (NCI-H226) (human CD26 [1]) [pM] | IC50 values (pM) of different bispecific antibodies mediating PBMC cytotoxicity to different target cells (OS-RC-2) (human CD26 [1]) [pM] | IC50 values (pM) of different bispecific antibodies mediating PBMC cytotoxicity to different target cells (PC-3) (human CD26 [1]) [pM] | IC50 values (pM) of different bispecific antibodies mediating PBMC cytotoxicity to OS-RC-2 (human CD26 [2]) [pM]
B1 | 4.7 | 13.7 | 9.9 | 4 | 9.9
B2 | 41.4 | 2.6 | 5.2 | 6.9 | –
B3 | – | – | – | – | 87.5
B4 | – | – | – | – | 5.8
